Experiments:
[1] = target: SARS-COV2-S1 RBD (mouse IgG2Fc tag) (SARS-CoV-2, UniProt P0DTC2 319-537)
[2] = target: T1, COVID S1 RBD Fc fusion (Antigen 1) (SARS-CoV-2, UniProt P0DTC2 319-541); assay: phage ELISA
T1 construct: domain: S1 RBD

[3] = target: T2, COVID S1 RBM Fc fusion (Antigen 2) (SARS-CoV-2, UniProt P0DTC2 437-508); assay: phage ELISA
T2 construct: domain: S1 RBM

[4] = target: SARS-CoV-2 spike on live SARS-CoV-2 virus (SARS-CoV-2, UniProt P0DTC2 14-1273); assay: cell-based or functional assay
[5] = target: SARS-CoV-2 membrane protein on expressing cells (SARS-CoV-2, UniProt P0DTC5 1-222)
[6] = target: T3, Acro SARS-CoV-2 (COVID-19) S1 protein (SARS-CoV-2, UniProt P0DTC2 16-685); assay: SPR
T3 construct: also called SARS-CoV-2 S1

B1: variant 6-40 (Fc fusion)
VHH: EVQLVESGGGLVQPGGSLRLSCAASGFTFSDYWMGWFRQAPGKERELVARVWWNGGSAYYADSVKGRFTISADNSKNTAYLQMNSLKPEDTAVYYCAREVLRQQVVLDYWGQGTLVTVSS
- IC50 [1]: 1.36 nM

B2: variant 3-10 (antibody, V domains shown)
VH: EVQLLESGGGLVQPGGSLRLSCAASGFTFRSHAMSWVRQAPGKGLEWVSSISGGGASTYYADSVKGRFTISRDNSKNTLYLQMNSLRAEDTAVYYCARVKYLTTSSGWPRPYFDNWGQGTLVTVSS
VL: DIQMTQSPSSLSASVGDRVTITCRASQSIRKYLNWYQQKPGKAPKLLIYASSTLQRGVPSRFSGSGSGTDFTLTISSLQPEDFATYYCQQSLSTPFTFGGGTKVEIK
- specificity ELISA, fold over background [2]: 1.2 fold over background
- specificity ELISA, percent binding relative to Acro S1 [2]: 97.2%
- specificity ELISA, fold over background [3]: 1.1 fold over background
- specificity ELISA, percent binding relative to Acro S1 [3]: 93.3%

B3: variant 6-7 (Fc fusion)
VHH: EVQLVESGGGLVQPGGSLRLSCAASGFTFSSYWMGWFRQAPGKEREFVATINWSGVTAYADSVKGRFTISADNSKNTAYLQMNSLKPEDTAVYYCARADDYFDYWGQGTLVTVSS
- IC50 [1]: 1.53 nM

B4: variant 6-57 (Fc fusion)
VHH: EVQLVESGGGLVQPGGSLRLSCAASGLTFDDHSMGWFRQAPGKEREFVAAVPLSGNTYYADSVKGRFTISADNSKNTAYLQMNSLKPEDTAVYYCASFSGGPADFDYWGQGTLVTVSS
- IC50 [1]: 3.13 nM

B5: variant 6-91 (Fc fusion)
VHH: EVQLVESGGGLVQPGGSLRLSCAASGRTFGNYAMGWFRQAPGKEREFVASISSSGVSKHYADSVKGRFTISADNSKNTAYLQMNSLKPEDTAVYYCVRFGSSWARDLDQWGQGTLVTVSS
- EC80 [4]: 240 µg/mL

B6: 10-6 (VHH)
VHH: EVQLVESGGGLVQPGGSLRLSCAASGTTLTFRIMGWFRQAPGKEREFVPAISSTGLASYTDSVKGRFTISADNSKNTAYLQMNSLKPEDTAVYYCSKDRAPNCFACCPNGFDVWGQGTLVTVSS
- MFI Ratio [5]: 1.08

B7: variant 6-6 (Fc fusion)
VHH: EVQLVESGGGLVQPGGSLRLSCAASGTTLDYYAMGWFRQAPGKERELVAAISWSGGSTAYADSVKGRFTISADNSKNTAYLQMNSLKPEDTAVYYCAREDYYDSSGYSWGQGTLVTVSS
- Kd [6]: 6.4 nM
- EC80 [4]: 24.4 µg/mL

B8: variant 6-32 (Fc fusion)
VHH: EVQLVESGGGLVQPGGSLRLSCAASGFTLDYYDMGWFRQAPGKEREFVALISWSGGSTYYADSVKGRFTISADNSKNTAYLQMNSLKPEDTAVYYCATDFYGWGTRERDAFDIWGQGTLVTVSS
- Kd [6]: 27.2 nM
- EC80 [4]: 60.6 µg/mL

B9: variant 2-9 (antibody, V domains shown)
VH: EVQLLESGGGLVQPGGSLRLSCAASGFTFPRYAMSWVRQAPGKGLEWVSTISGSGSTTYYADSVKGRFTISRDNSKNTLYLQMNSLRAEDTAVYYCARLIDAFDIWGQGTLVTVSS
VL: DIQMTQSPSSLSASVGDRVTITCRASQRIGTYLNWYQQKPGKAPKLLIYAASNLEGGVPSRFSGSGSGTDFTLTISSLQPEDFATYYCQQNYSTTWTFGQGTKVEIK
- specificity ELISA, fold over background [2]: 24.3 fold over background
- specificity ELISA, percent binding relative to Acro S1 [2]: 101%
- specificity ELISA, fold over background [3]: 0.8 fold over background
- specificity ELISA, percent binding relative to Acro S1 [3]: 3.5%

B10: variant 5-51 (Fc fusion)
VHH: EVQLVESGGGLVQPGGSLRLSCAASGRPNSINWMGWFRQAPGKERQFVATITPGGNTNYADSVKGRFTISADNSKNTAYLLMNSLKPEDTAVYYCAAAAGTTWYGTLYEYDWGQGTLVTVSS
- Kd [6]: 25.5 nM
- EC80 [4]: 388 µg/mL

B11: variant 2-1 (antibody, V domains shown)
VH: EVQLLESGGGLVQPGGSLRLSCAASGFTFSNYATDWVRQAPGKGLEWVSIISGSGGATYYADSVKGRFTISRDNSKNTLYLQMNSLRAEDTAVYYCAKGGYCSSDTCWWEYWLDPWGQGTLVTVSS
VL: DIQMTQSPSSLSASVGDRVTITCRASQSIHRFLNWYQQKPGKAPKLLIYAASNLHSGVPSRFSGSGSGTDFTLTISSLQPEDFATYYCQQSYGLPPTFGQGTKVEIK
- specificity ELISA, fold over background [2]: 36.8 fold over background
- specificity ELISA, percent binding relative to Acro S1 [2]: 93.7%
- specificity ELISA, fold over background [3]: 1.5 fold over background
- specificity ELISA, percent binding relative to Acro S1 [3]: 3.9%

B12: 9-2 (VHH)
VHH: EVQLVESGGGLVQPGGSLRLSCAASGSFSIAAMGWFRQAPGKEREFVATINYSGGGTYYADSVKGRFTISADNSKNTAYLQMNSLKPEDTAVYYCAAVNTFDESAYAAFACYDVVWGQGTLVTVSS
- MFI Ratio [5]: 1.3

B13: variant 6-47 (Fc fusion)
VHH: EVQLVESGGGLVQPGGSLRLSCAASGRTFSMHAMGWFRQAPGKERELVASITYGGNINYADSVKGRFTISADNSKNTAYLQMNSLKPEDTAVYYCAKEGYYDSTGYRTYFQQWGQGTLVTVSS
- IC50 [1]: 5.86 nM

B14: variant 6-41 (Fc fusion)
VHH: EVQLVESGGGLVQPGGSLRLSCAASGFTFSTSWMGWFRQAPGKEREFVASINEYGGRNYADSVKGRFTISADNSKNTAYLQMNSLKPEDTAVYYCAGLHYYYDSSGYNPTEYYGMDVWGQGTLVTVSS
- IC50 [1]: 6.6 nM

B15: variant 5-8 (Fc fusion)
VHH: EVQLVESGGGLVQPGGSLRLSCAASGRPFSEYTMGWFRQAPGKEREFVSSIHWGGRGTNYADSVKGRFTISADNSKNTAYLQMNSLKPEDTAVYYCAAELHSSDYTSPGAYAWGQGTLVTVSS
- EC80 [4]: 15.8 µg/mL

B16: variant 6-13 (Fc fusion)
VHH: EVQLVESGGGLVQPGGSLRLSCAASGLTFNDYAMGWFRQAPGKEREFVAHIPRSTYSPYYADSVKGRFTISADNSKNTAYLQMNSLKPEDTAVYYCAFLVGPQGVDHGAFDVWGQGTLVTVSS
- Kd [6]: 25.3 nM
- EC80 [4]: 25.7 µg/mL

B17: 10-2 (VHH)
VHH: EVQLVESGGGLVQPGGSLRLSCAASGGTFSSYSMGWFRQAPGKEREFVSAISWIIGSGGTTNYADSVKGRFTISADNSKNTAYLQMNSLKPEDTAVYYCTAGAGDSWGQGTLVTVSS
- MFI Ratio [5]: 1.25

B18: 10-1 (VHH)
VHH: EVQLVESGGGLVQPGGSLRLSCAASGLSSPPFDDFPMGWFRQAPGKEREFVSSIYSDDGDSMYADSVKGRFTISADNSKNTAYLQMNSLKPEDTAVYYCARQTFDFWSASLGGNFWYFDLWGQGTLVTVSS
- MFI Ratio [5]: 1.08

B19: 10-56 (VHH)
VHH: EVQLVESGGGLVQPGGSLRLSCAASGHTFRNYGMGWFRQAPGKEREFVAAITSSGSTNYADSVKGRFTISADNSKNTAYLQMNSLKPEDTAVYYCATVPPPRRFLEWLPRRLTYTWGQGTLVTVSS
- MFI Ratio [5]: 1.39

B20: 10-60 (VHH)
VHH: EVQLVESGGGLVQPGGSLRLSCAASGIPASMYLGWFRQAPGKEREFVAAITSGGRTSYADSVKGRFTISADNSKNTAYLQMNSLKPEDTAVYYCAKRKKRGPLWFGGGGWGYWGQGTLVTVSS
- MFI Ratio [5]: 1.14

B21: variant 6-67 (Fc fusion)
VHH: EVQLVESGGGLVQPGGSLRLSCAASGSFSNYAMGWFRQAPGKEREFVAAISSSGALTSYADSVKGRFTISADNSKNTAYLQMNSLKPEDTAVYYCWIVGPGPLDGMDVWGQGTLVTVSS
- IC50 [1]: 3.8 nM

B22: variant 6-24 (Fc fusion)
VHH: EVQLVESGGGLVQPGGSLRLSCAASGFTLDYYAMGWFRQAPGKEREFVAAINWSGDNTHYADSVKGRFTISADNSKNTAYLQMNSLKPEDTAVYYCARAPFYCTTTKCQDNYYYMDVWGQGTLVTVSS
- Kd [6]: 29.9 nM
- EC80 [4]: 31.4 µg/mL

B23: variant 6-82 (Fc fusion)
VHH: EVQLVESGGGLVQPGGSLRLSCAASGSSLDAYGMGWFRQAPGKEREFVAAISWGGGSIYYADSVKGRFTISADNSKNTAYLQMNSLKPEDTAVYYCARLSQGMVALDYWGQGTLVTVSS
- Kd [6]: 7.1 nM
- EC80 [4]: 108 µg/mL

B24: variant 6-22 (Fc fusion)
VHH: EVQLVESGGGLVQPGGSLRLSCAASGRTFSEVVMGWFRQAPGKEREFVATIHSSGSTSYADSVKGRFTISADNSKNTAYLQMNSLKPEDTAVYYCVRVTSDYSMDSWGQGTLVTVSS
- Kd [6]: 25.6 nM
- EC80 [4]: 103 µg/mL

B25: variant 5-32 (Fc fusion)
VHH: EVQLVESGGGLVQPGGSLRLSCAASGFTPDNYAMGWFRQAPGKEREFVAALGWSGVTTYHYYADSVKGRFTISADNSKNTAYLQMNSLKPEDTAVYYCASDESDAANWGQGTLVTVSS
- Kd [6]: 22.4 nM
- EC80 [4]: 180 µg/mL

B26: variant 6-42 (Fc fusion)
VHH: EVQLVESGGGLVQPGGSLRLSCAASGDTYGSYWMGWFRQAPGKEREFVAVITSGGSTNYADSVKGRFTISADNSKNTAYLQMNSLKPEDTAVYYCTHVQNSYYYAMDVWGQGTLVTVSS
- Kd [6]: 10.1 nM
- EC80 [4]: 0.734 µg/mL

B27: variant 5-63 (Fc fusion)
VHH: EVQLVESGGGLVQPGGSLRLSCAASGFSLDYYDMGWFRQAPGKEREFVAALGWSGGSTDYADSVKGRFTISADNSKNTAYLQMNSLKPEDTAVYYCAAGNGGRYGIVERWGQGTLVTVSS
- Kd [6]: 10.5 nM
- EC80 [4]: 14.2 µg/mL

B28: variant 5-38 (Fc fusion)
VHH: EVQLVESGGGLVQPGGSLRLSCAASGRTFSMHAMGWFRQAPGKERELVASISSQGRTNYADSVKGRFTISADNSKNTAYLQMNSLKPEDTAVYYCAAEVRNGSDYLPIDWGQGTLVTVSS
- EC80 [4]: 1.5 µg/mL

Reference: patent US20210355194A1 (TWIST BIOSCIENCE, published 2021)
